The values that follow come from patent US20150044226A1 (SBI BIOTECH, published 2015).

Test [1] addresses T1, cynomolgus monkey PLD4 (cynomolgus monkey, UniProt Q96BZ4 1-506 (human entry)).
T1 construct: also called cynomolgus monkey PLD4 protein; cyno PLD4
T1 chain: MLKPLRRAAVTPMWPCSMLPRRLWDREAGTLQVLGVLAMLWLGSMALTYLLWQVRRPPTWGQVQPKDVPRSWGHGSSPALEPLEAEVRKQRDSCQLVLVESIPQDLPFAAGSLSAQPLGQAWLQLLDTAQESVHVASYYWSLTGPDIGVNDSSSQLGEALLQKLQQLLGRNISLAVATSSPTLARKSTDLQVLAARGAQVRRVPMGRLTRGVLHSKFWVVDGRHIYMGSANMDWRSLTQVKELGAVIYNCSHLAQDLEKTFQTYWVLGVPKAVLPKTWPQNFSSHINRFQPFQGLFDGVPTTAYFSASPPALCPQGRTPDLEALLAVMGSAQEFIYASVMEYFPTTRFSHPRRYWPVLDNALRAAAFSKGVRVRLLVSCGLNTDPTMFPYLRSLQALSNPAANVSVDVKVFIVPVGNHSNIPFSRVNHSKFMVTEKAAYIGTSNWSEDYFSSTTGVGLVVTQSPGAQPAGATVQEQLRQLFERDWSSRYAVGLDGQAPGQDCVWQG
The experiment in a line: FACS on cynomolgus monkey PLD4-CT125 cells (FIG. 16).

Test [2] addresses T2, human PLD4 (phospholipase D4) protein (human, UniProt Q96BZ4 1-506).
T2 construct: Type II transmembrane protein, 506 a.a; also called hPLD4; HuPLD4
T2 sequence: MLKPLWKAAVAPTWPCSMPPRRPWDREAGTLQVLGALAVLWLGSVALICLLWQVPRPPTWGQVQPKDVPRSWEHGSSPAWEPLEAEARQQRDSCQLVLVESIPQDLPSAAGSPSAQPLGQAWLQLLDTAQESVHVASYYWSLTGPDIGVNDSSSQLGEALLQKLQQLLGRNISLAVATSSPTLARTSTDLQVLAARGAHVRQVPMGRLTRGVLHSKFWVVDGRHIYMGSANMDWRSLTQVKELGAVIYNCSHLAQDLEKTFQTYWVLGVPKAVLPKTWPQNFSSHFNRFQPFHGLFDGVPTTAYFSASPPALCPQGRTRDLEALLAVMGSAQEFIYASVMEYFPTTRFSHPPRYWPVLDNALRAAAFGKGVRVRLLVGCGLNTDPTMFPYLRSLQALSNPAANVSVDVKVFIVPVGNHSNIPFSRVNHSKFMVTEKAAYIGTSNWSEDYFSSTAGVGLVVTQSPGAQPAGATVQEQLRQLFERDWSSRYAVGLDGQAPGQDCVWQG
In words: FACS titration (0.001 to 30 µg/mL) of purified antibody on human PLD4-CT125 cells, positive cell frequency fitted with GraphPad Prism (FIG. 19). Here is the method:
For binding ability of the purified antibody, human PLD4-CT125 expression stable cell strain was reacted to nearly 100% of the positive staining rate at low concentration to high concentration (0.001 μg/mL to 30 μg/mL) of purified PLD4 antibody concentration. The frequency of staining positive cell and the antibody were data-analyzed using Graph Pad Prism version 5 software, and the dissociation constant molar concentration (Kd value) was computed in nM unit.

For test [3], the target named is T3, human PLD4 (phospholipase D4) protein (UniProt Q96BZ4 1-506).
T3 chain: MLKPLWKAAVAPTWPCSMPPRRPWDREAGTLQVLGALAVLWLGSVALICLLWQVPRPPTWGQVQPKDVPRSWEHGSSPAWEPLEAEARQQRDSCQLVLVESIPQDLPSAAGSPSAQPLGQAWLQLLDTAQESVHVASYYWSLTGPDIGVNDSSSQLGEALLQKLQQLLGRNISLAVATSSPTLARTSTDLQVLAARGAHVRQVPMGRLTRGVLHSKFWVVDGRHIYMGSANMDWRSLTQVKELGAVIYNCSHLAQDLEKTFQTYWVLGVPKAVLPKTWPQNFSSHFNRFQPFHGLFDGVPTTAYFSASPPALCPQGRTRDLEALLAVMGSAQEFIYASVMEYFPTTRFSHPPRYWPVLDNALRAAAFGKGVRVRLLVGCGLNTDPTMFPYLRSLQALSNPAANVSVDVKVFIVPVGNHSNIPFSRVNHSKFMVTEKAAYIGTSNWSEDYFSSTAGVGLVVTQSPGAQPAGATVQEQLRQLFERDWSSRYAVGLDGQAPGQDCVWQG
In words: binding to human PLD4-CT125 stable cells; apparent Kd.

Test [4] has as its target T4, rhesus monkey PLD4 (rhesus monkey, UniProt Q96BZ4 1-506 (human entry)).
T4 construct: also called rhesus monkey PLD4 protein
T4 chain: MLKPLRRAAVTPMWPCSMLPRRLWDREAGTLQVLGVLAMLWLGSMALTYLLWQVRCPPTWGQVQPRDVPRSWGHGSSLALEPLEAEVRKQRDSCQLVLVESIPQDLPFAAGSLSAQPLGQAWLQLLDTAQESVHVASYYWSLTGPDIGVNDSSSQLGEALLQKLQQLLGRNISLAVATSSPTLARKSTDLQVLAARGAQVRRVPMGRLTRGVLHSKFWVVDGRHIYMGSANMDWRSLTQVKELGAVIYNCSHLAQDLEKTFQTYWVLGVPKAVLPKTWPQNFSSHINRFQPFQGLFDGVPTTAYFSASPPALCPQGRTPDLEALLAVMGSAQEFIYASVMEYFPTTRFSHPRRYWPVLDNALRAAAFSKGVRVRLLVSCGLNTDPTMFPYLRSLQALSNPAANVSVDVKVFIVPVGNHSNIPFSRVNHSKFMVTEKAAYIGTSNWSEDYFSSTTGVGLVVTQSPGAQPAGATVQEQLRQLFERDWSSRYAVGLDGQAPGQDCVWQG
In words: FACS on rhesus monkey PBMC, pDC population (FIG. 18-1, 18-2). Here is the method:
PBMC of rhesus monkey from the peripheral blood (10 mL; SHIN NIPPON BIOMEDICAL LABORATORIES, LTD.), was centrifuged with specific gravity using 96% Ficoll-Paque (trademark) PLUS (GE Healthcare company, Cat No. 17-1440-02). For FACS, 5×10⁵ of cells were used per sample. The cells were washed with FACS buffer cell, and then added with 10 μL of 10% cynomolgus monkey serum diluted with FACS buffer, and reacted at 4° C. for 20 minutes. The cells were washed with FACS buffer, and then added with 100 μL of the cell culture supernatant of each hybridoma and 10 μg/mL of mouse IgG2a, κ or mouse IgG1, κ, and reacted at 4° C. for 15 minutes. The cells were washed with FACS buffer, and then added with 1 μg/mL of APC-labeled anti-mouse IgG antibody, and reacted at 4° C. for 20 minutes. The cells were washed with FACS buffer, and then reacted with 25 μL of 10 fold dilution of FITC-labeled anti-Lineage 1 antibody, PE-labeled anti-CD123 antibody, and PcrCP-Cy5.5-labeled anti-HLA-DR antibody at 4° C. for 15 minutes. The cells were washed with FACS buffer, and then resuspended in 300 μL of FACS buffer, and analyzed with FACS calibur. The used hybridoma culture supernatant was specific to PLD4, and 10 kinds of 3B4, 5B7, 7B4, 8C11, 10C3, 11D10, 13D4, 13H11, 14C1, and 11G9.6, which bound well to CAL-1 cell or human pDC, were selected. As a result thereof, 5 kinds of the hybridoma cell culture supernatants, i.e., 5B7, 7B4, 13D4, 13H11, and 14C1 specifically bound to pDC cell population of cynomolgus monkey (Lineage-CD123+HLA-DR+) (FIG. 18).

For test [5], the target named is T5, human PLD5 (human, UniProt Q8N7P1 92-536).
T5 sequence: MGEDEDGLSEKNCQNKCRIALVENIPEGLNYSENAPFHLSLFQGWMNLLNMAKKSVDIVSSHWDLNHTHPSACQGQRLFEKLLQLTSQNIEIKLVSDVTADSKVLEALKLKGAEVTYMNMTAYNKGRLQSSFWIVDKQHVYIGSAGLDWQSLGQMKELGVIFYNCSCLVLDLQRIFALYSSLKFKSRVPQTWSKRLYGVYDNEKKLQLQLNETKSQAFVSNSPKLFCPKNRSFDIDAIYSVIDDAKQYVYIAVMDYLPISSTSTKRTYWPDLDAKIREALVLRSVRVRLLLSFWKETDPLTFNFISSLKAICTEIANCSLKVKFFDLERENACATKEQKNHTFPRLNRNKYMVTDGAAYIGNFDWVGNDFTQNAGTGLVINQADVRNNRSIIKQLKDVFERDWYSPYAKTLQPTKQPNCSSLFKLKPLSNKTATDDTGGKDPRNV
The experiment in a line: FACS on 293T transfectants (FIG. 8).

Test [6] concerns the target T6, human PLD3 (human, UniProt Q8IV08 1-490).
T6 construct: also called human PLB3 [sic]
T6 sequence: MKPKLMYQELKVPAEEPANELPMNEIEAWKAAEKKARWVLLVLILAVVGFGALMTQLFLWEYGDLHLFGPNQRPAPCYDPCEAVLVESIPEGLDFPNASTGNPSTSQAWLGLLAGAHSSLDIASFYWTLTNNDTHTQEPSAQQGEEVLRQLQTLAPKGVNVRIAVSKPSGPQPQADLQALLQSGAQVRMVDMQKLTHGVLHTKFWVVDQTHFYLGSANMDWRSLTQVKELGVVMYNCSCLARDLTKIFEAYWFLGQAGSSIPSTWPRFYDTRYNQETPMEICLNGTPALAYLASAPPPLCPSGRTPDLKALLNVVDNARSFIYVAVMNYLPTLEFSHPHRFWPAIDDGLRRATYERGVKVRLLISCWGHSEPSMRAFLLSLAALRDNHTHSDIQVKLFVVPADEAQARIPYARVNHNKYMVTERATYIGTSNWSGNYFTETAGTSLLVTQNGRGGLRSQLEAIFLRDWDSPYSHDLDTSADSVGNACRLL
In words: FACS on 293T transfectants (FIG. 8).

B1: anti-PLD4 mouse 5B7 antibody (antibody, V domains shown)
VH: EVQLQQSGPELVKPGASVKISCKASGYTFTDYNLHWVKQSHGKSLEWIGYIYPYNGNTGYNQKFKRKATLTVDNSSGTVYMELRSLTSEDSAVYYCARGGIYDDYYDYAIDYWGQGTSVTVSS
VL: DIQMTQSPASLSVSVGETVAITCRASENIYSHIAWYQQKEGKSPQRLVYGATNLAHGVPSRFSGSGSGTQYSLKINSLQSEDFGSYYCQHFWGTPWTFGGGTKLEIKR
notes: Tested as hybridoma culture supernatant and as protein A purified antibody; also called mp5B7 (hybridoma)
For B1, the binding result in test [1] and in test [4] was “binds” each time. Further, the Kd in test [2] was at most 1 nM; in test [3], 0.056 nM.

B2: anti-PLD4 mouse 7B4 antibody (antibody, mouse IgG2b, V domains shown)
VH: EVQLQQSGPELVKPGASVKISCKASGYTFTDYNLHWVKQSHGKSLEWIGYIYPYNGNTGYNQKFKRKATLTVDNSSGTVYMELRSLTSEDSAVYYCARGGIYDDYYDYAIDYWGQGTSVTVSS
VL: DIQMTQSPASLSVSVGETVAITCRASENIYSHIAWYQQKEGKSPQRLVYGATNLAHGVPSRFSGSGSGTQYSLKINSLQSEDFGSYYCQHFWGTPWTFGGGTKLEIKR
notes: Tested as hybridoma culture supernatant and as purified antibody; also called mp7B4 (hybridoma)
B2: the binding result in test [1] and in test [4] was “binds” each time. In addition, the Kd in test [2] was at most 1 nM; in test [3] it was 0.087 nM.

B3: anti-PLD4 mouse 13H11 antibody (antibody, mouse IgG2b, V domains shown)
VH: DVQLQESGPGLVKPSQSLSLTCSVTGYSISSHYYWSWIRQFPGNRLEWMGYISYDGSNNYNPSLKNRISITRDTSKNQFFLKLNSVTTEDTATYNCAREGPLYYGNPYWYFDVWGAGTTVTVSS
VL: DIQMTQTTSSLSASLGGSVTISCRASQDIDNYLNWYQQKPDGTVKLLIYYTSRLHSGVPSRFSGSGSGTDYSLTISNLEQEDIATYFCQQFNTLPRTFGGGTKLEIKR
notes: Tested as hybridoma culture supernatant and as purified antibody; also called mp13H11 (hybridoma)
In the case of B3, the binding result in test [1] and in test [4] was “binds” in each case. In addition, the Kd was at most 1 nM in test [2] and 0.057 nM in test [3].

B4: anti-PLD4 mouse 14C1 antibody (antibody, mouse IgG1, V domains shown)
VH: DVQLQESGPGLVKPSQSLSLTCSVTGYSISSHYYWSWIRQFPGNRLEWMGYISYDGSNNYNPSLKNRISITRDTSKNQFFLKLNSVTTEDTATYNCAREGPLYYGNPYWYFDVWGAGTTVTVSS
VL: DIQMTQTTSSLSASLGGSVTISCRASQDIDNYLNWYQQKPDGTVKLLIYYTSRLHSGVPSRFSGSGSGTDYSLTISNLEQEDIATYFCQQFNTLPRTFGGGTKLEIKR
notes: Tested as hybridoma culture supernatant and as purified antibody
Consider B4, for which the binding result in test [1] and in test [4] was “binds” throughout. For the same molecule, the results for the Kd in test [2] and in test [3] were above 1 nM and 3.73 nM, respectively.

B5: anti-PLD4 mouse 13D4 antibody (antibody, mouse IgG2b, V domains shown)
VH: DVQLQESGPGLVKPSQSLSLTCSVTGYSITSHYYWTWIRQFPGNKLEWMGYISYDGSNNYNPSLKNRISITRDTSKNQFFLKLNSVTTEDTATYNCAREGPLYYGNPYWYFDVWGAGTTVTVSS
VL: DIQMTQTTSSLSASLGDRVTISCRASQDIDNYLNWYQQKPDGTVKLLIYYTSRLHSGVPSRFSGSGSGTDYSLTISNLEQEDVATYFCQQFNTLPRTFGGGTKLEIKR
notes: Tested as hybridoma culture supernatant and as purified antibody; also called mp13D4 (hybridoma)
In the case of B5, the binding result in test [1] and in test [4] was “binds” each time. Moreover, the results for the Kd in test [2] and in test [3] were at most 1 nM and 0.045 nM, respectively.

B6: anti-PLD4 mouse 11G9.6 antibody (antibody, V domains shown)
VH: QVQLQQPGAELVKPGTSVKMSCKASGYTFTSYWMHWVKQRPGQGLEWIGDIYPGSDSTNYNEKFKSKATLTVDTSSSTAYMQLSSLTSEDSAVYYCARGGWLDAMDYWGQGTSVTVSS
VL: DIQMTQTTSSLSASLGDRVTISCRASQDISNYLNWYQQKPDGTVKLLIYYTSRLHSGVPSRFSGSGSGTDYSLTISNLEQEDIATYFCQQGNTLPWTFGGGTKLEIKR
notes: Tested as hybridoma culture supernatant and as purified antibody; also called mp11G9.6; mp11G9.6 antibody
With B6, the Kd in test [2] is at most 1 nM; in test [3], 0.058 nM. The binding result in test [5] and in test [6] was “no binding” in each case.
